# T1: FRET substrate peptide KLRMKLPKP
# T1 chain: KLRMKLPKP
# B1: human cathepsin S wild-type, amino acids 17 to 331, C-terminal His-tag (CTSS-His) (protein)
# chain: LPDSVDWREKGCVTEVKYQGSCGACWAFSAVGALEAQLKLKTGKLVSLSAQNLVDCSTEKYGNKGCNGGFMTTAFQYIIDNKGIDSDASYPYKAMDQKCQYDSKYRAATCSKYTELPYGREDVLKEAVANKGPVSVGVDARHPSFFLYRSGVYYEPSCTQNVNHGVLVVGYGDLNGKEYWLVKNSWGHNFGEEGYIRMARNKGNHCGIASFPSYPEI
# Target: T1, FRET substrate peptide KLRMKLPKP
protein,measurement,value
B1,cleavage in FRET assay,validating the identified peptide by showing in a FRET assay that it is cleaved by cathepsin S
